Experimental data as given in article PMC9482650, “Quantitative fragmentomics allow affinity mapping of interactomes” (Nature Communications, 2022).

Experiments:
Test in all cases: holdup assay
Parameters in all cases: key: below the threshold = too weak to quantify, mostly under pKd 3.1 to 4
[1] = biological target: T1, LNX2_3, Q8N448
T1 sequence (Q8N448 463-564, limits assumed, looked up): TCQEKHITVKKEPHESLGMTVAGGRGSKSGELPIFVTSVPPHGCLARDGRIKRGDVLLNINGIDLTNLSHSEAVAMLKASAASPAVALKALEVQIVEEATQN

[2] = biological target: T2, SNTB1, Q13884
T2 sequence (Q13884 107-205, limits assumed, looked up): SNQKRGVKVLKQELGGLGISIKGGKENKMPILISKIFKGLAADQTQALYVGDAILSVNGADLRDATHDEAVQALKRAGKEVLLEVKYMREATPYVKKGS

[3] = biological target: TJP2_1, Q9UDY2
Chain of TJP2_1, Q9UDY2 (Q9UDY2 24-128): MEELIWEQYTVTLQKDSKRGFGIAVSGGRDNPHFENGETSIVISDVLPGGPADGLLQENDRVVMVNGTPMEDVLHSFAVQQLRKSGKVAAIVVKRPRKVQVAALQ

[4] = biological target: T3, DFNB31_2, Q9P202
T3 sequence (Q9P202 274-371, limits assumed, looked up): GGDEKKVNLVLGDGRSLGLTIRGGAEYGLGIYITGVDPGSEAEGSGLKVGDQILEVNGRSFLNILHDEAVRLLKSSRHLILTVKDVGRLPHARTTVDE

[5] = biological target: GRASP, Q7Z6J2
Chain of GRASP, Q7Z6J2 (Q7Z6J2 96-193): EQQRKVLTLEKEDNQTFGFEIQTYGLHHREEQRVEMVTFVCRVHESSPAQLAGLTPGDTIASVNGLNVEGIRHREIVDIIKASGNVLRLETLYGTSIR

[6] = biological target: GRIP2_6, Q9C0E4
Chain of GRIP2_6, Q9C0E4 (Q9C0E4 648-740): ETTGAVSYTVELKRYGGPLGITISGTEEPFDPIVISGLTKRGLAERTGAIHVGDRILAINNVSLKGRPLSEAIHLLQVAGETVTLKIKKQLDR

[7] = biological target: T4, DVL3, Q92997
T4 sequence (Q92997 244-331, limits assumed, looked up): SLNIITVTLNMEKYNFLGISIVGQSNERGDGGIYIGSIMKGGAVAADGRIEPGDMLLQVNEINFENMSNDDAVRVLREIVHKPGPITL

[8] = biological target: T5, APBA2_1, Q99767
T5 sequence (Q99767 563-664, limits assumed, looked up): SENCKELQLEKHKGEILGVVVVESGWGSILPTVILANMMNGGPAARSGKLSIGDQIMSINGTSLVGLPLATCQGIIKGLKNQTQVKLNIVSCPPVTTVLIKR

[9] = biological target: DLG1_1, Q12959
[10] = biological target: IL16_3, Q14005
Chain of IL16_3, Q14005 (Q14005 1107-1207): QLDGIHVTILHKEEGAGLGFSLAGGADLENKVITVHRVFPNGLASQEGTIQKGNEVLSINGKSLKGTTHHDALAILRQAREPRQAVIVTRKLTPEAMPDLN

[11] = biological target: LIMK2, P53671
Chain of LIMK2, P53671 (P53671 143-248): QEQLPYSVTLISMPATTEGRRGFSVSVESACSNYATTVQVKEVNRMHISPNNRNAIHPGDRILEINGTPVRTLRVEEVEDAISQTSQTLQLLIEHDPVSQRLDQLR

[12] = biological target: DLG5_1, Q8TDM6
Chain of DLG5_1, Q8TDM6 (Q8TDM6 617-713): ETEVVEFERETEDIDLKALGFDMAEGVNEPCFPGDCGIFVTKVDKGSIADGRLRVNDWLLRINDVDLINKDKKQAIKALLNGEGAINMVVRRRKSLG

[13] = biological target: SNX27, Q96L92
[14] = biological target: NHERF4_1, Q86UT5-2
Chain of NHERF4_1, Q86UT5-2 (Q86UT5 other isoform, or with tags, fused parts or gaps): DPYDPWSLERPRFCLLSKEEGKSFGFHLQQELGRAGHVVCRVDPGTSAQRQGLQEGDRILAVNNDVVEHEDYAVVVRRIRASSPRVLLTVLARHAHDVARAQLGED

[15] = biological target: TJP1_2, Q07157
Chain of TJP1_2, Q07157 (Q07157 181-274): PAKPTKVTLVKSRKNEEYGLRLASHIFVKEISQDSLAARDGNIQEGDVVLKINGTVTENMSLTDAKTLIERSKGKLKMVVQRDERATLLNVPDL

[16] = biological target: T6, RAPGEF6, Q8TEU7
T6 sequence (Q8TEU7 525-625, limits assumed, looked up): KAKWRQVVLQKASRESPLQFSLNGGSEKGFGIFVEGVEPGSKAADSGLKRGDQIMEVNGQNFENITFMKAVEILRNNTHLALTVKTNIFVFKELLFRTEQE

[17] = biological target: HTRA1, Q92743
Chain of HTRA1, Q92743 (Q92743 360-477): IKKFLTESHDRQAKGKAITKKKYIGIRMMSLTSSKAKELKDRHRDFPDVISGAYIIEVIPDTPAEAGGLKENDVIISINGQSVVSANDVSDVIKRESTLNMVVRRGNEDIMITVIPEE

[18] = biological target: SCRIB_2, Q14160
Chain of SCRIB_2, Q14160 (Q14160 857-960): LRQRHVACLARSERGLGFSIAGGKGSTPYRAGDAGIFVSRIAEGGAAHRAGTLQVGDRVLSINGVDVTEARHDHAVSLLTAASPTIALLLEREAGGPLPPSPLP

[19] = biological target: IL16_4, Q14005
Chain of IL16_4, Q14005 (Q14005 1229-1329): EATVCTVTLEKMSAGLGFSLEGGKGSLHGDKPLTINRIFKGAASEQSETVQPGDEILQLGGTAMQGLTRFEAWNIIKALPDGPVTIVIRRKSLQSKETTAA

[20] = biological target: T7, PDZD2_2, O15018
T7 sequence (O15018 329-429, limits assumed, looked up): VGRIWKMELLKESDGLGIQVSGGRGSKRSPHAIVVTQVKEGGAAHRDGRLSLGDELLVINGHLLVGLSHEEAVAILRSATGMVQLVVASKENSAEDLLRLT

[21] = biological target: T8, APBA2_2, Q99767
T8 sequence (Q99767 654-744, limits assumed, looked up): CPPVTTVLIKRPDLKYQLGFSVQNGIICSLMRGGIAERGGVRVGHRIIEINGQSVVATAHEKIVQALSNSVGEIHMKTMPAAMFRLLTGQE

[22] = biological target: T9, ARHGEF11, O15085
T9 sequence (O15085 42-136, limits assumed, looked up): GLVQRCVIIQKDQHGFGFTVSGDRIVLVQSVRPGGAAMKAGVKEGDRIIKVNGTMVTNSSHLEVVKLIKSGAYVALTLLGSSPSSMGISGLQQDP

[23] = biological target: SCRIB_3, Q14160
Chain of SCRIB_3, Q14160 (Q14160 999-1103): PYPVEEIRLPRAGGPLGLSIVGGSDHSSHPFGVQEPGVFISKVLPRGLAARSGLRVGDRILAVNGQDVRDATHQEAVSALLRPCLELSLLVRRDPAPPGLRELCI

[24] = biological target: GRIP2_3, Q9C0E4
Chain of GRIP2_3, Q9C0E4 (Q9C0E4 238-339): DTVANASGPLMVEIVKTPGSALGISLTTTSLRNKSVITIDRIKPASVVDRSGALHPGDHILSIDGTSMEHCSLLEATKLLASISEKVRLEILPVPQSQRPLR

[25] = biological target: T10, MPP6, Q9NZW5
T10 sequence (Q9NZW5 125-219, limits assumed, looked up): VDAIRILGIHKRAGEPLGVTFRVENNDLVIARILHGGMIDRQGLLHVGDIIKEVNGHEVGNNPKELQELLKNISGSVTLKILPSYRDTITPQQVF

[26] = biological target: T11, MPDZ_10, O75970
T11 sequence (O75970 1624-1722, limits assumed, looked up): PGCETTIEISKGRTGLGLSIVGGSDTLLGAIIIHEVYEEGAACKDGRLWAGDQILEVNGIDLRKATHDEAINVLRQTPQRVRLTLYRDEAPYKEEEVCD

[27] = plain residues with an end cap or a label only (N-terminal biotin on a linker: ttds)
[28] = plain residues with an end cap or a label only (N-terminal biotin on a linker: ahx)
[29] = plain residues with an end cap or a label only (N-terminal biotin on a linker: ado-ado)

## VNKVWDQSSV [CIT, O14578]
[1]; [27]
  pKd: below the threshold
[2]; [27]
  pKd: below the threshold
[3]; [27]
  pKd: below the threshold
[4]; [27]
  pKd: below the threshold
[5]; [27]
  pKd: 4.33
[6]; [27]
  pKd: below the threshold
[7]; [27]
  pKd: below the threshold
[8]; [27]
  pKd: below the threshold
[9]; [27]
  pKd: below the threshold
[10]; [27]
  pKd: below the threshold
[11]; [27]
  pKd: below the threshold
[12]; [27]
  pKd: below the threshold
[13]; [27]
  pKd: 5.11
[14]; [27]
  pKd: below the threshold
[15]; [27]
  pKd: below the threshold
[16]; [27]
  pKd: below the threshold
[17]; [27]
  pKd: below the threshold
[18]; [27]
  pKd: 3.51
[19]; [27]
  pKd: below the threshold
[20]; [27]
  pKd: 4.86
[21]; [27]
  pKd: below the threshold
[22]; [27]
  pKd: below the threshold
[23]; [27]
  pKd: below the threshold
[24]; [27]
  pKd: below the threshold
[25]; [27]
  pKd: below the threshold
[26]; [27]
  pKd: below the threshold

## EKLSSIESDV [GRIN2B, Q13224]
[1]; [28]
  pKd: below the threshold
[2]; [28]
  pKd: 4.46
[3]; [28]
  pKd: below the threshold
[4]; [28]
  pKd: below the threshold
[5]; [28]
  pKd: below the threshold
[6]; [28]
  pKd: below the threshold
[7]; [28]
  pKd: below the threshold
[8]; [28]
  pKd: 3.53
[9]; [28]
  pKd: 4.3
[10]; [28]
  pKd: 3.57
[11]; [28]
  pKd: below the threshold
[12]; [28]
  pKd: below the threshold
[13]; [28]
  pKd: 3.87
[14]; [28]
  pKd: 3.53
[15]; [28]
  pKd: below the threshold
[16]; [28]
  pKd: below the threshold
[17]; [28]
  pKd: below the threshold
[18]; [28]
  pKd: 4.34
[19]; [28]
  pKd: below the threshold
[20]; [28]
  pKd: 4.82
[21]; [28]
  pKd: below the threshold
[22]; [28]
  pKd: 3.56
[23]; [28]
  pKd: 4.28
[24]; [28]
  pKd: below the threshold
[25]; [28]
  pKd: below the threshold
[26]; [28]
  pKd: 3.84

## GFGEERESIL [KIDINS220, Q9ULH0]
[1]; [29]
  pKd: below the threshold
[2]; [29]
  pKd: 5.4
[3]; [29]
  pKd: below the threshold
[4]; [29]
  pKd: below the threshold
[5]; [29]
  pKd: 3.48
[6]; [29]
  pKd: below the threshold
[7]; [29]
  pKd: below the threshold
[8]; [29]
  pKd: below the threshold
[9]; [29]
  pKd: below the threshold
[10]; [29]
  pKd: below the threshold
[11]; [29]
  pKd: below the threshold
[12]; [29]
  pKd: below the threshold
[13]; [29]
  pKd: 5.59
[14]; [29]
  pKd: 3.77
[15]; [29]
  pKd: below the threshold
[16]; [29]
  pKd: below the threshold
[17]; [29]
  pKd: 4.6
[18]; [29]
  pKd: below the threshold
[19]; [29]
  pKd: 3.74
[20]; [29]
  pKd: 4.65
[21]; [29]
  pKd: below the threshold
[22]; [29]
  pKd: 3.8
[23]; [29]
  pKd: 4.56
[24]; [29]
  pKd: below the threshold
[25]; [29]
  pKd: below the threshold
[26]; [29]
  pKd: below the threshold

## PKRPFVESNV [TANC2, Q9HCD6]
[1]; [27]
  pKd: below the threshold
[2]; [27]
  pKd: 4.49
[3]; [27]
  pKd: below the threshold
[4]; [27]
  pKd: below the threshold
[5]; [27]
  pKd: below the threshold
[6]; [27]
  pKd: below the threshold
[7]; [27]
  pKd: below the threshold
[8]; [27]
  pKd: below the threshold
[9]; [27]
  pKd: 4.31
[10]; [27]
  pKd: below the threshold
[11]; [27]
  pKd: below the threshold
[12]; [27]
  pKd: below the threshold
[13]; [27]
  pKd: 4.8
[14]; [27]
  pKd: below the threshold
[15]; [27]
  pKd: below the threshold
[16]; [27]
  pKd: below the threshold
[17]; [27]
  pKd: below the threshold
[18]; [27]
  pKd: 4.59
[19]; [27]
  pKd: below the threshold
[20]; [27]
  pKd: 4.52
[21]; [27]
  pKd: below the threshold
[22]; [27]
  pKd: below the threshold
[23]; [27]
  pKd: 4.79
[24]; [27]
  pKd: below the threshold
[25]; [27]
  pKd: below the threshold
[26]; [27]
  pKd: 3.51

## SEKHFRETEV [HTLV1-TAX1, P03409]
[1]; [27]
  pKd: below the threshold
[2]; [27]
  pKd: 6.12
[3]; [27]
  pKd: below the threshold
[4]; [27]
  pKd: 3.71
[5]; [27]
  pKd: below the threshold
[6]; [27]
  pKd: below the threshold
[7]; [27]
  pKd: 3.62
[8]; [27]
  pKd: below the threshold
[9]; [27]
  pKd: 5.19
[10]; [27]
  pKd: below the threshold
[11]; [27]
  pKd: below the threshold
[12]; [27]
  pKd: below the threshold
[13]; [27]
  pKd: 5.72
[14]; [27]
  pKd: below the threshold
[15]; [27]
  pKd: below the threshold
[16]; [27]
  pKd: below the threshold
[17]; [27]
  pKd: 3.97
[18]; [27]
  pKd: 5.76
[19]; [27]
  pKd: below the threshold
[20]; [27]
  pKd: 4.44
[21]; [27]
  pKd: below the threshold
[22]; [27]
  pKd: 4.22
[23]; [27]
  pKd: 5.34
[24]; [27]
  pKd: below the threshold
[25]; [27]
  pKd: below the threshold
[26]; [27]
  pKd: below the threshold
